The series deals with the molecule itself. Description: SEC; in vitro acid screen of purified VLPs; HPLC SEC peak height relative to pH 7.3 (normalized acid tolerance, n = 3).

B1: MS2 bacteriophage coat protein CP[T71H/E76C] (natural protein)
chain: ASNFTQFVLVDNGGTGDVTVAPSNFANGVAEWISSNSRSQAYKVTCSVRQSSAQNRKYTIKVEVPKVATQHVGGVCLPVAAWRSYLNMELTIPIFATNSDCELIVKAMQGLLKDGNPIPSAIAANSGIY
notes: MS2 bacteriophage coat protein (MS2 CP); also called CP[T71/E76C]; double mutant
In the case of B1, the binding result is listed as “binds”.

The record behind these values is publication PMC5895741, “Quantitative characterization of all single amino acid variants of a viral capsid-based drug delivery vehicle” (Nature Communications, 2018).
